Experimental data: patent US7049395 (YALE UNIVERSITY, dated 2006)

T1: FLAG-tagged IKKβ (human, UniProt O14920 1-756)
T1 construct: expressed in transfected COS, HEK293 or HeLa cells; also called IKKβ-FLAG; FLAG-IKKβ
T1 sequence (looked up): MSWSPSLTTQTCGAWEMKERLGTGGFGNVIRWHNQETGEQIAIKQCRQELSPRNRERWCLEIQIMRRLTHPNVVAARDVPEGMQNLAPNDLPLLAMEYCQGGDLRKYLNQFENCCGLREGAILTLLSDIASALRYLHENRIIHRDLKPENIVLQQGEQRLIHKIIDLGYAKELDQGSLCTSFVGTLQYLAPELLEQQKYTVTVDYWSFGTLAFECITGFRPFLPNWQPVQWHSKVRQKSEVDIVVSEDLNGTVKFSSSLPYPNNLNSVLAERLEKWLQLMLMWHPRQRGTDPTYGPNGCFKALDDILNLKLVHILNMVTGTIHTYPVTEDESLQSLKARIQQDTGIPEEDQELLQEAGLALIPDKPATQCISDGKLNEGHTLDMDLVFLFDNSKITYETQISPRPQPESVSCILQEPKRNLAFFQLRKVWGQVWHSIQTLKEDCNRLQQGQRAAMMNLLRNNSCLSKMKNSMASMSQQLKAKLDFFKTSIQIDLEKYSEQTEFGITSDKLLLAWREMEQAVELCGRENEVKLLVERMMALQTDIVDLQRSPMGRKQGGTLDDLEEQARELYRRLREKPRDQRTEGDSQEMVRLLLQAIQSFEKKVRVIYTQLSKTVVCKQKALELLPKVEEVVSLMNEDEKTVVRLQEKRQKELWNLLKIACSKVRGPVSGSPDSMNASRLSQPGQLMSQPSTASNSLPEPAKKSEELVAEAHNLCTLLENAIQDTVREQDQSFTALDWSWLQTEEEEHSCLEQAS

B1: NEMO-(197-419) (other, human, UniProt Q9Y6K9 197-419, looked up)
chain: VQVDQLRMQGQSVEAALRMERQAASEEKRKLAQLQVAYHQLFQEYDNHIKSSVVGSERKRGMQLEDLKQQLQQAEEALVAKQEVIDKLKEEAEQHKIVMETVPVLKAQADIYKADFQAERQAREKLAEKKELLQEQLEQLQREYSKLKASCQESARIEDMRKRHVEVSQAPLPPAPAYLSSPLALPSQRRSPPEEPPDFCCPKCQYQAPDMDTLQIHVMECIE
notes: range 197-419; [35S]-labelled in vitro translated; also transfected in COS or HEK293 cells
B2: IKKβ-(644-756) (enzyme, human, UniProt O14920 644-756, looked up)
chain: VRLQEKRQKELWNLLKIACSKVRGPVSGSPDSMNASRLSQPGQLMSQPSTASNSLPEPAKKSEELVAEAHNLCTLLENAIQDTVREQDQSFTALDWSWLQTEEEEHSCLEQAS
B3: GST-IKKβ-(644-756) (other, human, UniProt O14920 644-756, looked up)
chain: B2 chain
notes: bacterially expressed; not shown: glutathione S-transferase (GST) as encoded by vector pGEX-4T1 (Pharmacia)
B4: NEMO-(1-196) (other, human, UniProt Q9Y6K9 1-196, looked up)
chain: MNRHLWKSQLCEMVQPSGGPAADQDVLGEESPLGKPAMLHLPSEQGAPETLQRCLEENQELRDAIRQSNQILRERCEELLHFQASQREEKEFLMCKFQEARKLVERLGLEKLDLKRQKEQALREVEHLKRCQQQMAEDKASVKAQVTSLLGELQESQSRLEAATKECQALEGRARAASEQARQLESEREALQQQHS
notes: [35S]-labelled in vitro translated; also transfected in COS or HEK293 cells

Tests used:
FLAG-tagged IKKβ = molecular target: T1, FLAG-tagged IKKβ; assay: co-immunoprecipitation from transfected COS or HEK293 cells
Procedure: For all immunoprecipitations HeLa or COS cells grown in six well trays were lysed in 500 µl TNT. FLAG-tagged proteins were precipitated from lysate of transfected cells for two hours at 4° C. using 20 µl of anti-FLAG (M2)-conjugated agarose beads (Sigma). […] For immunoblotting, precipitates were washed three times with TNT, twice with PBS then suspended in SDS-sample buffer. Proteins were separated by SDS-PAGE (10%), transferred to PVDF membranes and visualized by enhanced chemiluminesence (Amersham-Pharmacia).

GST alone [1] = molecular target: T2, GST alone (UniProt P08515 1-218 = GST); assay: GST pull-down of in vitro translated protein
T2 construct: control bait in the GST pull-downs
T2 sequence (P08515 whole entry): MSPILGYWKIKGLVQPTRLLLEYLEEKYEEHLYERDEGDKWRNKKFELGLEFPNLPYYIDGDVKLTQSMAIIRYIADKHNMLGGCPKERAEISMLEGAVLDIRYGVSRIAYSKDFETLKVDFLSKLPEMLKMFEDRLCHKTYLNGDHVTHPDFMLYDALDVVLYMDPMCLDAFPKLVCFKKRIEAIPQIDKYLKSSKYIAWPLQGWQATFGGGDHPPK

NEMO-(197-419) = molecular target: B1; assay: GST pull-down with GST-IKKβ-(644-756)
Description: (§1) Equal amounts of each protein were used for subsequent GST pull-down analyses.

NEMO-(86-419) = molecular target: T3, NEMO-(86-419) (human, UniProt Q9Y6K9 86-419); assay: GST pull-down with GST-IKKβ-(644-756)
T3 construct: range 86-419; [35S]-labelled in vitro translated; also transfected in COS or HEK293 cells
Description: as §1

GST alone [2] = molecular target: T2, GST alone; assay: GST pull-down of [35S]-labelled NEMO truncations
Description: as §1

B1: no binding (FLAG-tagged IKKβ).

B2: no binding (GST alone [1]).

B3: no binding (NEMO-(197-419)); no binding (NEMO-(86-419)).

B4: no binding (GST alone [2]).
